This is an account of results in the domain aggregation screens of Martell et al. (2025).
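Note: 20 min heating vs room temperature control held 20 min.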

A short description of this data set: soluble fraction after stress (log2 fold change); higher = more stays soluble; pooled small domains, quantitative proteomics. The conditions noted are these: stress: 75 degC.
On to “HMDSINIDEETAKLGPNAPQIIDGIKKWGQGLVAKGVWSDEDFDEFKVFAATSSGINALNKIRKYY”, for which the “soluble fraction (log2)” value was 0.188.
Turning to “HMDSKYLRIFSTLIDEMEKMSPGEQLQSERELSQRFQVSPMTVRRALHKLSTEGYTSAIPGKGTFVRK”, the “soluble fraction (log2)” value is -0.707.
As for “HMDSLELADEVGRVSEALQELRPHQREVLELSLVHGRSHQQISEKTGLALGTVKSHARRGLMRVREMLGV”, the figure is -0.381; as for “HMDSLIEYENERSLRRLINENLSDYERTVWWLYYAGADAAHIAEQTGRSKRSAENAITRVRRKLRALITQS”, -1.33; as for “HMDSNISVSEALEMVDKGSVKEIIVEGEKLYITNQDGKQYTSSKEVGVSLIELMKDSGIDPIKSDVNIIVK”, 0.463.
The result for “HMDSRVRHAVLTTLLGKRIVDDLVEKGELPGTPLVLATAPGLDRDLEQLIAQRVVTALLTTV” reads -0.0018; that for “HMDSSALEPIVDQIIADNPKQVEQFQAGKTKVLGFFVGQVMKQTDGTANPKQVNELVAARLKSA”, 0.0418.
As for “HMDSTDSIIHYVRAHRSLEVKNLSFAEARFKKVVELEPNFARGWLGLGEVSILKNNFENASIYLDKALE”, the figure is -0.282; as for “HMDSTLTNEIYNELYRAITHQELKPGQNLTLTMLKKQFNVSHTPIREALTRLSADGLVTYHPNKGMKVT”, -0.444; as for “HMDSTTHALALVRTLPRDQAEAVLLRVVADLDYADVAEIMGRSPGAVRVLVHRGLRRLEQELATRRT”, -0.574.
On to “HMDSVEYRVITGDDVNFRKGPSTDYASLGKLNKGYKVEYISETNSWSKVKYNGQTGYVYSKYVAQT”, for which the “soluble fraction (log2)” value is -0.155.
As for “HMDSVTVPDISGYSPKAAEDSINNAGLKINEQGLSGSGDGQVVERTSPSAGSKVKKGDSVTVYYSKA”, the figure is 0.0423.
The result for “HMDTDVFLMDLRGESRDYAEEVLINNNLEVKVIILPFSKRHYPGKVVEMRPSPFTKVKKGRIITLSVAGN” reads -3.73; that for “HMDTDWDVSGVTPDQYRLLFSVLGGLAGVKDVGLNPDGLRIIHTPEALPSIEKAFQANGLKLKRNVD”, -0.0943; that for “HMDTETLIDKYQLNASEAAVLRFMDKNRDSLRDLGIRDVARASYVSTATIVNMAKKIGYSGYSELVFAYGS”, -3.69.
As for “HMDTFSVAIGTKTPDGSSVGEVKTISRDELLLLEDEVAEDPTKEIIFTGGTKDSAQAALDGWIDYNTNLAS”, the figure is 0.0395; as for “HMDTFYKNLSKKIKTIREKLSFSQEALAKELGISRVAISQIENGDRKISAEEIAKLSRVFNVPTDILLN”, -0.281.
Regarding “HMDTHDVQVPQEGQGLRLDLFLTDHIEGSRSFIQTIIKDGHVILNGKKAKANSRLNEGDYVVWSIPKPE”, the “soluble fraction (log2)” value is -0.288.
The result for “HMDTHRLNYSDFVAEVQAQRVSKVVIDGYTIVGQRTNGETFETVRPALQDPKLVDDLLQNNVIIEGKQPE” reads -0.0116; that for “HMDTIVHFLSDGRRITVRIKRNARKNIILRPMAADAVSATIPPWLGRRQLSAWLSEREDLLLSVLSRAA”, -3.34; that for “HMDTLESYVKRLEKLEGIADSFKGVSKAFALQAGREIRIMVESEKITDEEAVWLSKDIARRIENELEYPG”, -0.331.
The result for “HMDTNKMLIVNSISNGMKRLQELQDPQLAEIQKTFSGLDEQKATSAQLAQINNIINNRIAEIEG” reads 0.23; that for “HMDTNPKVIITMDGVNVRSSASTGSDILFIAEKGEEYELISESGDFYKILYEGNKEGYVASWLVETSE”, 0.239; that for “HMDTNVKLLSPKQADFFASKLANNQNFSSKFAKVGEDMQPFIERISSELQQDISQVIVYMPYLLESGFKQ”, -0.328.
For “HMDTNVPVPNVNGMTLNQAKAALEAAGFHVAVNWLGEKSDNNSVISYEPNGSAAKGTTITITVIAQPEQDG”, the “soluble fraction (log2)” value is 0.0988.
The result for “HMDTPPGLSPEEQAIIDIITTRGDATINELTASIDIPTPRLMGMLVDMEFRSLIAAIPGGRYRI” reads -1.82.
The result for “HMDTRQFWEQWVADEIRTFEHKDRKQLFGWFEGNKPKLGQMKKLGYGDLLTKVQTSWDEIYQQKE” reads 0.0857; that for “HMDTRSSARKALDAVNLLLETYGAKAYQHSYEIAGRRQQFQTPGDFMAFRSRLMAEVATEENAARINA”, -0.211; that for “HMDTSKIDYSEFITMLDKGEVESVVLKSDTLTVTLKHGTGMAAQTKTVTLMEDLSELTKRLEKAGVKSFDK”, 0.614.
As for “HMDTVIAEVTASILNLRRSAGTSSDIIGKLNKGEKVSIIGGSGNWKNVRTSGGITGWVYHEYLSTY”, the figure is -1.46; as for “HMDTYDSIDSILEERHLSRRKLAQAIGLPPSTFQSMMSRKSGMTLEVLMKIVSYLQVSPDAFW”, -3.17.
On to “HMDVAWDAIKAKLKEVVDAEDKAHPLNDDQIVKALGESGITIARRTIAKYRDLLGIPPARKRKA”, for which the “soluble fraction (log2)” value was -0.213.
On to “HMDVIGLEAAKSAAVKDAGISSPTFTKATLDRDDGRSLYEIEFISGSTKYEYDIDALTGSVLSKKTRALS”, for which the “soluble fraction (log2)” value worked out at 0.207.
The result for “HMDVKPWERQEGESAKAFEAFTIYAGLGADRSLRAVAQQLGKSKTLMDRWSSTYSWVARAAEYDADLQRK” reads -0.489.
As for “HMDVLFGNRLRQLLDERNISQAHFADRIGVSRSRMNNYVAQRSEPDYATLIRIANTLDTSIDFLLGKS”, the figure is -2.36; as for “HMDVLIQEIGKRLRIQRLAMGLTQEELAKRAGISLSTLKLMEQQGKGSLQRLAKVAVVLDLDGDLRGLF”, -2.87.
As for “HMDVLKVFSHNVRRYRTQLGLSQETVAFRTGLHRTYISAVERGKRSISLDNIQKIADALEVETYLLFI”, the “soluble fraction (log2)” value is -1.76.
Consider “HMDVLNPGDKAVTTASWLNFRTGPGMQNKVASVLARNTTVNIIEKSNEWYKVSLANGSTGYVHGMYLSKIT”, for which the “soluble fraction (log2)” value was -1.73.
As for “HMDVLSQYGSRGEEVGKIQTRLKSWGYFSGEVTGYYGSQTTEAVKRFQQKHGLSATGVADRKTLELIGIS”, the “soluble fraction (log2)” value was -0.307.
Consider “HMDVLTARENEVLQLLAKGMSNKEIASVLVITEKTVKAHVSSILSKLNLSDRTQAALYAVKNGI”, for which the “soluble fraction (log2)” value is -0.763.
As for “HMDVNMLVTGMLHKGEKSFVRVSFLRGKDWAEGIVPDAKIEKSQGFMEEEVARLEAYLLEQKSMIMEQA”, the figure is -1.83.
The result for “HMDVQGFVMDLDKPLDKEPIVEGFELKLEDSLTLVAAVNKDKSINSLFDELSKLGIKVKSMRNPP” reads 0.0316; that for “HMDVQNLTKKNQEFINIVTHQLLQSGKSDEDIQTILAKTLPEIIEKQKQGIPARSFLGAPTAWAAQFI”, -0.0596; that for “HMDVRLAKVYMLPANPYLRFIEFDDGTHGKFRAKPGKFGLGSVVKVKREDGDMYTLEGNYDGKDRL”, -0.763.
On to “HMDVSPVRLIREARGLSQVEVAKAAGLSRAAYQNIEVGKTVPRASTMVNIARALGVSMDDLLAPV”, for which the “soluble fraction (log2)” value is -0.437.
As for “HMDVSVPDVTGTRLDRAQSLLEAQGLTLGKVEEFFHATEPAGIVYDQEPRPGTRVDEGTAISVSVSKGPEA”, the figure is 0.323; as for “HMDWFDELKVSTDDSGRVTAPEESEFMFQTSNEKIFAGGDMVRGSDLVVTAIWEGRQAAEGIMDYLD”, -0.02.
As for “HMDWPDDETIARIYALIKSDISSQARKVMELRFSEGMPFARIAAAMGISETAVYRHLSHALTVIRQKLN”, the figure is -2.14; as for “HMDWREMTAWMAELLKRRTGDDVETWNARVRESGAHDEASLRAWLTEQGVTGYAQTLLVMERFGYPDFF”, -2.89.
With “HMDYADISYKIFMNHIKNGQVERVELSGDPRIMGKLKDGTYFVTDNPRTENFKEFLLLNNVQVIETN”, the “soluble fraction (log2)” value was 0.738.
As for “HMDYEVPEELQQKFEEFPRLKEAFYQLTPGRQHQYLYYFSQAKRSQTRYNRIDKYMNAILQGKGMK”, the figure is -1.67.
Turning to “HMDYINALTTAGITDAKVIVTAPFDVSGTAALTGIYKAYEDITGSSLNEIAKAVGVEELITTGNLA”, the “soluble fraction (log2)” value is 0.23.
As to “HMDYKAELDNIIRDHLDMEGPLLPVLHAVMARFSYIPKDAIPIIARKLNLSSAEVSGVISFYHDFKKEK”, the “soluble fraction (log2)” value is -1.81.
As for “HMDYKYYIVKEPMVVKNLELPVGTRIVYFNTSLFGDSESSRPLKEKNIYQIFFPDDKPLIWGGVPVSLIER”, the figure is -2.24.
Take “HMDYNLTKNQKIVFNLLQNSGEPLKAYTILESLKREGLKSPLQVYRALDKLVELGIIHKIESQNSFI”: the “soluble fraction (log2)” value is -0.334.
Consider “HMDYNMEEWSLTADQLKSGDTILILNLGKTATLLESTRGKKNVRVRMGNIKTIVETSSIRGNPHQ”, for which the “soluble fraction (log2)” value is -1.77.
Regarding “HMDYPFQYFNYSHLRILGVPAQLIKAVRKAPTLDAIEQLSGLSEKTKLWLLELATEPKLEDVLFDPGR”, the “soluble fraction (log2)” value is -1.98.
Consider “HMDYRSMSGLQKAALLIMSVGEETAAKLFQLMHDDEIREISQTMANLGTVNATVIERLFVEFADAISS”, for which the “soluble fraction (log2)” value was -1.1.
As to “HMDYVKTLGETINVRVAASTDADIYKLLPGGEILNRVGYNEEWTKVMVDGSTFYVYSEYVIQTEPPA”, the “soluble fraction (log2)” value is -1.32.
As for “HMDYYSILGVDRNATGEDIKKAFKKKAMKYHPDRNPDNKESERKFKEAKEAYDTLSNPQKKSMYDQFGT”, the figure is 0.149; as for “HMEAEDLRDWVGARGIAYTALRPAGIAVVNGRRVDVVSEGAFVNRDDPVEVVRVEGRRIVVKP”, -0.0876; as for “HMEAGTEYVERAADYIRSHFQEDLTVSKLALYVGLNRSYLTTVFQNTLHVSPQQFLMRFRMERAAQLLD”, 0.0997.
“HMEAGTVTVTHAAVYIRSGPGVSYPIAGKAAKNDTYTVLQKDGDWFQIRLPQGNTGWIAGWLVETGT”: the “soluble fraction (log2)” value was -1.69.
Consider “HMEAISIYPNPTDNELHLSTSVQEVRIYNMYGIEVTRAANTDRLAVSHLPKGVYLVHADGAVLKMIK”, for which the “soluble fraction (log2)” value is -2.7.
The result for “HMEAISSESIKKMIKSYVSGEDASKPLSDQQIADLLVKEGYMISRRTVAKYRDELGILSSSKRKR” reads -0.152; that for “HMEAKQMDAWIVSEAKRQGGKIEPAAAYELSRHTATDTSIASQEIAKLLMYVDFKRPVTREDVVELVSA”, 0.0579; that for “HMEALPELTDRQRQVYEFIEARIAEWGYPPTIREIGQHLGIKSTNGVADHLKALKRKGYLQQ”, -0.566.
As for “HMEALTPREREVLTLMGQGRSNAEIATLLSIAPRTAKVHVQNILSKLGATNRTEAVSLAVRQGLIS”, the figure is 0.343; as for “HMEASVNAPMPGKIVSVSVSEGQQVNAGDVLLILEAMKMQNEITADAAGTVKAINVNAGQSVKNGDSLVIL”, 0.832.
